The source of these data is patent publication US20240360238A1 (MAGENTA THERAPEUTICS, published 2024).

Numbering of substitutions follows the chain as printed.

Sequences and labels used below:
B1: HC-18/LC-18 (Ab18) (antibody, IgG1, V domains shown)
VH: EVQLQQYGAELGKPGTSVRLSCKVSGYNIRNTYIHWVNQRPGEGLEWIGRIDPTNGNTISAEKFKTKATLTADTSSHTAYLQFSQLKSDDTAIYFCALNYEGYADYWGQGVMVTGSS
VL: DIQMTQSPSFLSASVGDRVTINCKASQNINKYLNWYQQKVGEAPKRLIFKTNSLQTGIPSRFSGSGSGTDYTLTISSLQTEDVATYFCFQYNIGYTFGAGTKVELK
notes: From rat immunization/hybridoma; purified IgG in BLI; also called 018
B2: HC-20/LC-20 (Ab20) (antibody, IgG1, V domains shown)
VH: EVQLQQYGAELGKPGTSVRLSCKLSGYKIRNTYIHWVNQRPGKGLEWIGRIDPANGNTIYAEKFKSKVTLTADTSSNTAYMQLSQLKSDDTALYFCAMNYEGYEDYWGQGVMVTVSS
VL: B1 VL with R18S, V40L, F49H, N52D, T80P, N92K, I93S, Y95F, T96M, V103L
notes: From rat immunization/hybridoma; purified IgG in BLI; also called 020
B3: HC-28/LC-28 (Ab28) (antibody, IgG1, V domains shown)
VH: B2 VH with L24V
VL: B1 VL with R18S, V40L, F49H, T56P, I58F, T80P, T85A, I93S, Y95F, V103L
notes: From rat immunization/hybridoma; purified IgG in BLI; also called 028
B4: HC-23/LC-23 (Ab23) (antibody, IgG1, V domains shown)
VH: B1 VH with N38H, T66S, H77N, L81M, L98M, G115V
VL: B1 VL with V19L, V40L, T80P, Y95F, V103L
notes: From rat immunization/hybridoma; purified IgG in BLI; also called 023
B5: HC-2/LC-2 (Ab2) (antibody, IgG1, V domains shown)
VH: QVQLVQSGAAVKKPGESLKISCKGSGYRFTTYWIGWVRQMPGKGLEWMGIIYPGDSDTRYSPSFQGQVTISAGKSISTAYLQWSSLKASDTAMYYCARHGRGYNGYEGAFDIWGQGTMVTVSS
VL: DIQLTQSPSSLSASVGDRVTITCRASQGIRTDLGWYQQKPGKAPKLLIYDASSLESGVPSRFSGSGSGTDFTLTISSLQPEDFATYYCQQFNSYPLTFGGGTKVEIK
notes: Purified IgG; also called 002
B6: HC-6/LC-6 (Ab6) (antibody, IgG1, V domains shown)
VH: B5 VH
VL: AIRMTQSPSSLSASVGDRVIIACRASQGIGGALAWYQQKPGNAPKVLVYDASTLESGVPSRFSGGGSGTDFTLTISSLQPEDFATYYCQQFNSYPLTFGGGTKLEIK
notes: Purified IgG; also called 006
B7: HC-9/LC-9 (Ab9) (antibody, IgG1, V domains shown)
VH: B5 VH
VL: B5 VL with D1A, Q3R, L4M, R24Q, T31N, S53N, S56T, L73F, F83I, V104L
notes: Purified IgG; also called 009
B8: HC-10/LC-10 (Ab10) (antibody, IgG1, V domains shown)
VH: B5 VH
VL: NIQMTQSPSSLSTSVGDRVTITCRASQGIGTSLAWYQQKPGKPPKLLIYDASSLESGVPSRLSGSGSGTDFTLTISSLQPEDFATYYCQQSNSYPITFGQGTRLEIK
notes: Purified IgG; also called 010
B9: HC-11/LC-11 (Ab11) (antibody, IgG1, V domains shown)
VH: B5 VH
VL: AIQLTQSPSSLSASVGDRVTITCRASQSIGDYLTWYQQKPGKAPKVLIYGASSLQSGVPPRFSGSGSGTDFTLTVSSLQPEDFATYYCQQLNSYPLTFGGGTKLEIK
notes: Purified IgG; also called 011
B10: HC-16/LC-16 (Ab16) (antibody, IgG1, V domains shown)
VH: B5 VH
VL: B5 VL with D1A, R30T, T31S, D32A, G34A, Q38E, K45N, S67Y, F91L, E105D
notes: Purified IgG; also called 016
B11: HC-5/LC-5 (Ab5) (antibody, IgG1, V domains shown)
VH: B5 VH
VL: NIQMTQSPSSLSASVGDRVTITCRASQAISDYLAWFQQKPGKAPKLLIYDASNLETGVPSRFSGSGSGTDFTLTISSLQPEDFATYYCQQLNSYPLTFGGGTKVEIK
notes: Purified IgG; also called 005
B12: HC-3/LC-3 (Ab3) (antibody, IgG1, V domains shown)
VH: B5 VH
VL: B5 VL with D1A, Q3R, L4M, T31N, G34A, A43T
notes: Purified IgG; also called 003
B13: HC-14/LC-14 (Ab14) (antibody, IgG1, V domains shown)
VH: B5 VH
VL: B5 VL with R30S, T31S, D32F, G34A, S53T, E55Q, G66A, F91L, S93G
notes: Purified IgG; also called 014
B14: HC-15/LC-15 (Ab15) (antibody, IgG1, V domains shown)
VH: B5 VH
VL: AIQLTQSPSSLSASVGDRVTITCRASQGIGSALAWYQQKPGIGPKLLIYDASTLESGVPARFSGSGSRTDFTLTITSLQPEDFATYYCQQFNGYPLTFGGGTKLEIK
notes: Purified IgG; also called 015
B15: HC-4/LC-4 (Ab4) (antibody, IgG1, V domains shown)
VH: B5 VH
VL: B5 VL with D1A, L4M, T31N, E105D
notes: Purified IgG; also called 004
B16: HC-12/LC-12 (Ab12) (antibody, IgG1, V domains shown)
VH: B5 VH
VL: B5 VL with I29V, T31S, D32T, G34A, S53I, S93G, G100Q, K103R, V104L
notes: Purified IgG; also called 012
B17: HC-13/LC-13 (Ab13) (antibody, IgG1, V domains shown)
VH: B5 VH
VL: B5 VL with Q3V, L4M, T31N, V104L
notes: Purified IgG; also called 013
B18: HC-8/LC-8 (Ab8) (antibody, IgG1, V domains shown)
VH: B5 VH
VL: DIQMTQSPSSLSASVGDRVTITCRASQGISSALAWYQQKAGKAPKVLISDASSLESGVPSRFSGSGSGTDFTLSISSLQPEDFATYYCQQFNGYPLTFGGGTKVDIK
notes: Purified IgG; also called 008
B19: HC-7/LC-7 (Ab7) (antibody, IgG1, V domains shown)
VH: B5 VH
VL: B5 VL with Q3A, L4M, S9P, S14F, R30I, T31S, D32S, G34A, S76R, V104L
notes: Purified IgG; also called 007
B20: HC-19/LC-19 (Ab19) (antibody, IgG1, V domains shown)
VH: EVQLQESGPGLVKPSQSLSLTCSVTGYSISSNYRWNWIRKFPGNKVEWMGYINSAGSTNYNPSLKSRISMTRDTSKNQFFLQVNSVTTEDTATYYCARSLRGYITDYSGFFDYWGQGVMVTVSS
VL: DIRMTQSPASLSASLGETVNIECLASEDIFSDLAWYQQKPGKSPQLLIYNANSLQNGVPSRFSGSGSGTRYSLKINSLQSEDVATYFCQQYKNYPLTFGSGTKLEIK
notes: From rat immunization/hybridoma; purified IgG in BLI; also called 019
B21: HC-17/LC-17 (Ab17) (antibody, IgG1, V domains shown)
VH: QIQLVQSGPELRKPGESVKISCKASGYTFTDYAMYWVKQAPGKGLKWMGWINTYTGKPTYADDFKGRFVFSLEASANTANLQISNLKNEDTATYFCARARGLVDDYVMDAWGQGTSVTVSS
VL: SYELIQPPSASVTLGNTVSLTCVGDELSKRYAQWYQQKPDKTIVSVIYKDSERPSGISDRFSGSSSGTTATLTIHGTLAEDEADYYCLSTYSDDNLPVFGGGTKLTVL
notes: From rat immunization/hybridoma; purified IgG in BLI; also called 017
B22: HC-21/LC-21 (Ab21) (antibody, IgG1, V domains shown)
VH: QIQLVQSGPELKKPGESVKISCKASGYTFTDYAVYWVIQAPGKGLKWMGWINTYTGKPTYADDFKGRFVFSLETSASTANLQISNLKNEDTATYFCARGAGMTKDYVMDAWGRGVLVTVS
VL: B21 VL with G56D
notes: From rat immunization/hybridoma; purified IgG in BLI; also called 021

For the first assay, the target named is T1, purified human CD117 ectodomain (R&D Systems #332-SR) (human, UniProt P10721 26-524).
T1 construct: extracellular domain; Bought protein; also called c-kit; purified recombinant human CD117 ectodomain
T1 sequence (P10721 26-524): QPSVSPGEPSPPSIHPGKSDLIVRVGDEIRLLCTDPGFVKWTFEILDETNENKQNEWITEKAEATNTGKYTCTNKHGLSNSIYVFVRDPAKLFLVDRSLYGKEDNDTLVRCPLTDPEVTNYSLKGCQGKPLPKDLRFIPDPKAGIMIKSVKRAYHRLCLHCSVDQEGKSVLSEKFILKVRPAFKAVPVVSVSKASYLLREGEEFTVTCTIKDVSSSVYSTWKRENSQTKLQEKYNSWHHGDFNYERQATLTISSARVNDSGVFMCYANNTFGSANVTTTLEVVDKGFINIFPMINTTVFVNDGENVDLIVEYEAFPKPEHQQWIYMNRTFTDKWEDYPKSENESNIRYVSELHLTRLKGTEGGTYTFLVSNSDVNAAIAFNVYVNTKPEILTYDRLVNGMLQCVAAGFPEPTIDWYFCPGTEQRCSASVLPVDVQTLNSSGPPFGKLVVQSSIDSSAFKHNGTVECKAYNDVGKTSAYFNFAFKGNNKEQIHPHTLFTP
Nature of the assay: BLI, purified IgG on sensor, soluble ectodomain; apparent monovalent. On the technique in general: BLI is a label-free optical method that tracks binding on a fibre tip over time.
In general, koff refers to a measure of how fast the partners let go of each other. Broadly, the kon is a measure of how fast the partners come together. Regarding B1, the Kd turned out to be 22.2 nM, the koff was 0.00491 s⁻¹ and the kon came out at 221000 M⁻¹ s⁻¹.

As to B2, the Kd came out at 0.254 nM, the koff was 0.000202 s⁻¹ and the kon turned out to be 794000 M⁻¹ s⁻¹.

Regarding B3, the Kd is 0.403 nM, the koff worked out at 0.000368 s⁻¹ and the kon stood at 914000 M⁻¹ s⁻¹.

Turning to B4, the Kd is 1.49 nM, the koff came to 0.000713 s⁻¹ and the kon was 478000 M⁻¹ s⁻¹.

As to B5, the Kd stood at 0.729 nM, the koff came to 0.00027 s⁻¹ and the kon was determined as 370000 M⁻¹ s⁻¹.

As for B6, the Kd stood at 3.72 nM, the koff turned out to be 0.00117 s⁻¹ and the kon stood at 315000 M⁻¹ s⁻¹.

Take B7: the Kd turned out to be 1.51 nM, the koff was determined as 0.000427 s⁻¹ and the kon amounted to 283000 M⁻¹ s⁻¹.

Take B8: the Kd was found to be 1.68 nM, the koff was found to be 0.000585 s⁻¹ and the kon stood at 348000 M⁻¹ s⁻¹.

In the case of B9, the Kd was 1.41 nM, the koff was found to be 0.000474 s⁻¹ and the kon amounted to 336000 M⁻¹ s⁻¹.

With B10, the Kd was 2.93 nM, the koff was determined as 0.000949 s⁻¹ and the kon was found to be 324000 M⁻¹ s⁻¹.

On to B11, for which the Kd worked out at 1.21 nM, the koff was 0.000461 s⁻¹ and the kon turned out to be 380000 M⁻¹ s⁻¹.

B12: the Kd is 1.02 nM, the koff was 0.000352 s⁻¹ and the kon was 346000 M⁻¹ s⁻¹.

In the case of B13, the Kd was determined as 2.03 nM, the off-rate (koff) turned out to be 0.000577 s⁻¹ and the kon came out at 284000 M⁻¹ s⁻¹.

On to B14, for which the Kd was 0.979 nM, the koff was determined as 0.00026 s⁻¹ and the kon stood at 265000 M⁻¹ s⁻¹.

On to B15, for which the Kd came to 1.18 nM, the koff turned out to be 0.000405 s⁻¹ and the kon is 345000 M⁻¹ s⁻¹.

On to B16, for which the Kd is 0.911 nM, the koff is 0.000268 s⁻¹ and the kon is 294000 M⁻¹ s⁻¹.

As for B17, the Kd is 1.55 nM, the dissociation rate constant (koff) was 0.000488 s⁻¹ and the kon was 314000 M⁻¹ s⁻¹.

As for B18, the Kd came to 0.908 nM, the koff turned out to be 0.000264 s⁻¹ and the kon was determined as 290000 M⁻¹ s⁻¹.

For B19, the Kd stood at 0.99 nM, the koff came to 0.000272 s⁻¹ and the kon was determined as 275000 M⁻¹ s⁻¹.

Consider B20, for which the Kd was 2.35 nM, the koff is 0.000481 s⁻¹ and the kon was found to be 205000 M⁻¹ s⁻¹.

In the case of B21, the Kd turned out to be 0.672 nM, the koff came out at 0.000306 s⁻¹ and the kon turned out to be 456000 M⁻¹ s⁻¹.

As for B22, the Kd turned out to be 0.715 nM, the koff is 0.000437 s⁻¹ and the kon came out at 612000 M⁻¹ s⁻¹.

The target of another assay is T2, purified rhesus CD117 ectodomain (rhesus, UniProt F6V858 26-524).
T2 construct: extracellular domain; also called rhesus antigen
In words: BLI, purified IgG on sensor, soluble rhesus ectodomain; apparent monovalent.
With B1, the Kd was determined as 53.8 nM, the koff came to 0.0119 s⁻¹ and the kon was found to be 221000 M⁻¹ s⁻¹.

As to B2, the Kd turned out to be 1.39 nM, the koff came to 0.000585 s⁻¹ and the kon was 421000 M⁻¹ s⁻¹.

On to B3, for which the Kd worked out at 3.6 nM, the koff was determined as 0.00187 s⁻¹ and the kon was 521000 M⁻¹ s⁻¹.

Regarding B4, the Kd turned out to be 7.62 nM, the koff came to 0.00214 s⁻¹ and the kon turned out to be 280000 M⁻¹ s⁻¹.

Consider B20, for which the Kd was 2.34 nM, the koff amounted to 0.000415 s⁻¹ and the kon came to 177000 M⁻¹ s⁻¹.

With B21, the Kd is 0.562 nM, the koff stood at 0.000173 s⁻¹ and the kon came out at 307000 M⁻¹ s⁻¹.

For the molecule B22, the Kd was determined as 0.869 nM, the koff stood at 0.000357 s⁻¹ and the on-rate constant (kon) turned out to be 410000 M⁻¹ s⁻¹.
